Key:
Experiment in all cases: fluorescence polarisation
[1] = molecular target: soluble HLA-A*02:01 class I molecule (fluorescence polarization assay)
[2] = molecular target: soluble HLA-A*03:01 class I molecule (fluorescence polarization assay)
[3] = molecular target: soluble HLA-A*11:01 class I molecule (fluorescence polarization assay)
[4] = molecular target: soluble HLA-B*07:02 class I molecule (fluorescence polarization assay)

Binder | IC50 [1] [µM] | IC50 [2] [µM] | IC50 [3] [nM] | IC50 [4] [µM]
KLVVVGAGGV [KRAS 5-14 wild-type peptide] | 10.9 |  |  | 
VVGARGVGK [KRAS G12R 8-16 peptide] |  | 5.3 | 634 | 
VVVGARGVGK [KRAS G12R 7-16 peptide] |  | 3.24 | 566 | 
GAGGVGKSAL [KRAS 10-19 wild-type peptide] |  |  |  | 76.9
KLVVVGARGV [KRAS G12R 5-14 peptide] | 20.7 |  |  | 
ALLAVGATK [gp17-25 peptide, Melanocyte protein PMEL] |  | 0.962 | 225 | 

Reference: article PMC8285372, “Biochemical and functional characterization of mutant KRAS epitopes validates this oncoprotein for immunological targeting” (Nature Communications, 2021)
